Test results reported in the PETadex activity labels (doi:10.1002/cbic.202200516).

B1: unnamed (protein)
chain: MDGVLWRVRTAALMAALLALAAWALVWASPSVEAQSNPYQRGPNPTRSALTADGPFSVATYTVSRLSVSGFGGGVIYYPTGTSLTFGGIAMSPGYTADASSLAWLGRRLASHGFVVLVINTNSRFDYPDSRASQLSAALNYLRTSSPSAVRARLDANRLAVAGHSMGGGGTLRIAEQNPSLKAAVPLTPWHTDKTFNTSVPVLIVGAEADTVAPVSQHAIPFYQNLPSTTPKVYVELDNASHFAPNSNNAAISVYTISWMKLWVDNDTRYRQFLCNVNDPALSDFRTNNRHCQ
B2: unnamed (protein)
chain: MNFPRASRLMQAAVLGGLMAVSAAATAQTNPYARGPNPTAASLEASAGPFTVRSFTVSRPSGYGAGTVYYPTNAGGTVGAIAIVPGYTARQSSIKWWGPRLASHGFVVITIDTNSTLDQPSSRSSQQMAALRQVASLNGTSSSPIYGKVDTARMGVMGWSMGGGGSLISAANNPSLKAAAPQAPWDSSTNFSSVTVPTLIFACENDSIAPVNSSALPIYDSMSRNAKQFLEINGGSHSCANSGNSNQALIGKKGVAWMKRFMDNDTRYSTFACENPNSTRVSDFRTANCS
B3: unnamed (protein)
chain: MAVMTPRRERSSLLSRALQVTAAAATALVTAVSLAAPAHAANPYERGPNPTDALLEASSGPFSVSEENVSRLSASGFGGGTIYYPRENNTYGAVAISPGYTGTEASIAWLGERIASHGFVVITIDTITTLDQPDSRAEQLNAALNHMINRASSTVRSRIDSSRLAVMGHSMGGGGTLRLASQRPDLKAAIPLTPWHLNKNWSSVTVPTLIIGADLDTIAPVATHAKPFYNSLPSSISKAYLELDGATHFAPNIPNKIIGKYSVAWLKRFVDNDTRYTQFLCPGPRDGLFGEVEEYRSTCPF

What follows are proteins tested on BHET. Settings: 50 °C.
With B1 the Km was 960 µM, the kcat was 6.2 s⁻¹ and the kcat/Km was 6460 M⁻¹ s⁻¹.
In the case of B3, the Km is reported as 230 µM, the kcat is reported as 1.1 s⁻¹ and the kcat/Km is reported as 4780 M⁻¹ s⁻¹.

The proteins below were run on MHET. Settings: 50 °C.
B1 showed a Km of 1200 µM, a kcat of 0.048 s⁻¹ and a kcat/Km of 40 M⁻¹ s⁻¹.
Work on B3 yielded a Km of 3800 µM, a kcat of 0.043 s⁻¹ and a kcat/Km of 11.3 M⁻¹ s⁻¹.

The proteins below were run on PET-02mer. Settings: 50 °C.
With B1 the Km was 790 µM, the kcat was 300 s⁻¹ and the kcat/Km was 380000 M⁻¹ s⁻¹.
For B3, the Km was 170 µM, the kcat was 62 s⁻¹ and the kcat/Km was 365000 M⁻¹ s⁻¹.

These proteins were tested on BHET. Settings: 50 °C; part of the chain shown.
In the case of B2, the Km is reported as 1400 µM, the kcat is reported as 4.8 s⁻¹ and the kcat/Km is reported as 3430 M⁻¹ s⁻¹.

The proteins below were run on PET-02mer. Settings: 50 °C; part of the chain shown.
B2 showed a Km of 58 µM, a kcat of 23 s⁻¹ and a kcat/Km of 397000 M⁻¹ s⁻¹.
